Measured values as given in patent US20180305421A1 (SHIRE HUMAN GENETIC THERAPIES, published 2018).

T1: BMP-9 (UniProt Q9UK05 320-429)
T1 sequence (looked up): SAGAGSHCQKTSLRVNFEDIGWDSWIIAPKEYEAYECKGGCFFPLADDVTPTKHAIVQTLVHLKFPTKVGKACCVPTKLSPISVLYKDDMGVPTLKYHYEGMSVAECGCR

T2: BMP-7 (UniProt P18075 293-431)
T2 sequence (looked up): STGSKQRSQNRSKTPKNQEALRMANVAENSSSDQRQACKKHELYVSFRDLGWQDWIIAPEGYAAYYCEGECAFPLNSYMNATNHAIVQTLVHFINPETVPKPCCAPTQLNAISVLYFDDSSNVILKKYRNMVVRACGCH

T3: BMP-6 (UniProt P22004 382-513, limits assumed)
T3 sequence (looked up): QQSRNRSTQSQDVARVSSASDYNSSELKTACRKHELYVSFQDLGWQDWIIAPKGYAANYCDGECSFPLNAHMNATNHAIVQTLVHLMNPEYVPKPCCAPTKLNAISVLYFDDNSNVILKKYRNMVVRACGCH

T4: BMP-4 (UniProt P12644 293-408)
T4 sequence (looked up): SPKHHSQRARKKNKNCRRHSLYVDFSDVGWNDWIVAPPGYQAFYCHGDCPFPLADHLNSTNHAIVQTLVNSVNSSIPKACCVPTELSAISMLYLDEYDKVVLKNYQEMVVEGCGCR

T5: myostatin (UniProt O14793 267-375)
T5 sequence (looked up): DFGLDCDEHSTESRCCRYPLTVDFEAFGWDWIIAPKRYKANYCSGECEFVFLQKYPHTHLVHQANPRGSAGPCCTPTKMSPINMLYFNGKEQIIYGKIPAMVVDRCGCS

T6: BMP-10 (UniProt O95393 317-424)
T6 sequence (looked up): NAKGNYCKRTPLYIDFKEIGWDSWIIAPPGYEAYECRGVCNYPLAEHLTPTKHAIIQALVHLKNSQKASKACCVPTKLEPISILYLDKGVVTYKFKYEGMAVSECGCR

T7: GDF-11 (UniProt O95390 299-407)
T7 sequence (looked up): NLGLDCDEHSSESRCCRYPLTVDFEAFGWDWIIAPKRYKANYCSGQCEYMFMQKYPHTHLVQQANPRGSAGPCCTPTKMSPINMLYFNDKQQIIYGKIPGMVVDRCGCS

B1: sActRIIB-hFc (Fc fusion, UniProt Q13705 25-134, looked up)
chain: ETRECIYYNANWELERTNQSGLERCEGEQDKRLHCYASWRNSSGTIELVKKGCWLDDFNCYDRQECVATEENPQVYFCCCEGNFCNERFTHLPEAGGPEVTYEPPPTAPT
notes: Control protein in the Biacore assay; also called sActRTIB-hFc; sActRIIB-Fc; not shown: human Fc
B2: FS315-GAG3-mFc (Fc fusion)
chain: GNCWLRQAKNGRCQVLYKTELSKEECCSTGRLSTSWTEEDVNDNTLFKWMIFNGGAPNCIPCKETCENVDCGPGKKCRMNKKNKPRCVCAPDCSNITWKGPVCGLDGKTYRNECALLKARCKEQPELEVQYQGRCKKTCRDVFCPGSSTCVVDQTNNAYCVTCNRICPEPASSEQYLCGNDGVTYSSACHLRKATCLLGRSIGLAYEGKCIKAKSCEDIQCTGGKKCLWDFKVGRGRCSLCDELCPDSKSDEPVCASDNATYASECAMKEAACSSGVLLEVKHSGSCNSISEDTEEEEEDEDQDYSFPISSILEWGAPGGGGGAAAAAGGGGGGAPGGGGGAAAAAGGGGGGAPGGGGGAAAAAGGGGGGAPGCKPCICTVPEVSSVFIFPPKPKDVLTITLTPKVTCVVVDISKDDPEVQFSWFVDDVEVHTAQTQPREEQFNSTFRSVSELPIMHQDWLNGKEFKCRVNSAAFPAPIEKTISKTKGRPKAPQVYTIPPPKEQMAKDKVSLTCMITDFFPEDITVEWQWNGQPAENYKNTQPIMDTDGSYFVYSKLNVQKSNWEAGNTFTCSVLHEGLHNHHTEKSLSHSPGK
notes: also called FS315-mFc; FS315-Fc
B3: activin (ligand, UniProt P08476 311-426, looked up)
chain: GLECDGKVNICCKKQFFVSFKDIGWNDWIIAPSGYHANYCEGECPSHIAGTSGSSLSFHSTVINHYRMRGHSPFANLKSCCVPTKLRPMSMLYYDDGQNIIKKDIQNMIVEECGCS
notes: also called activin A

Assays:
BMP-2 = BMP-2 (UniProt P12643 283-396); experiment: Biacore SPR, 25 C; Fc fusion captured with antibody capture kit, ligand as soluble analyte
From the text: (§1) Specifically, commercially available follistatins (FS315, manufactured by R&D Systems and follistatin-Fc human chimera FS315-hFc, manufactured by Sino Biological), and FS315-GAG3-mFc fusion proteins were used to assess binding affinity and kinetics to activin, myostatin, and BMPs using Biacore assays. Briefly, FS315 was immobilized onto a CM5 chip, and follistatin-Fc fusion proteins were captured using human or mouse antibody capture kits (GE Healthcare). Post amine-coupling, a concentration series of activin, myostatin, or BMPs (e.g., BMP-2, -4, -6, -7, -9, -10, and GDF-1) was added as soluble analyte at 25° C. sActRTIB-hFc was used as a control. Binding affinities (Kd) and kinetics were determined using standard methods.

BMP-9 [1] = target: T1, BMP-9; experiment: cell-based or functional assay
BMP-7 = target: T2, BMP-7; experiment: Biacore SPR, 25 C; Fc fusion captured with human antibody capture kit, ligand as soluble analyte
From the text: as §1

BMP-9 [2] = target: T1, BMP-9; experiment: as above
From the text: as §1

BMP-6 = target: T3, BMP-6; experiment: as above
From the text: as §1

BMP-4 [3] = target: T4, BMP-4; experiment: as above
From the text: as §1

activin [4] = target: B3; experiment: as above
From the text: as §1

activin [5] = target: B3; experiment: cell-based or functional assay
myostatin [6] = target: T5, myostatin; experiment: cell-based or functional assay
BMP-9 [7] = target: T1, BMP-9; experiment: Biacore SPR, 25 C; Fc fusion captured with antibody capture kit, ligand as soluble analyte
From the text: as §1

BMP-10 = target: T6, BMP-10; experiment: as above
From the text: as §1

GDF-11 = target: T7, GDF-11; experiment: Biacore SPR, 25 C; Fc fusion captured with mouse antibody capture kit, ligand as soluble analyte
From the text: as §1

BMP-4 [8] = target: T4, BMP-4; experiment: as above
From the text: as §1

activin [9] = target: B3; experiment: as above
From the text: as §1

myostatin [10] = target: T5, myostatin; experiment: as above
From the text: as §1

myostatin [11] = target: T5, myostatin; experiment: Biacore SPR (Table 3)
From the text: as §1

myostatin [12] = target: T5, myostatin; experiment: cell-based or functional assay; remark: listed apart in the source
FS315 (R&D Systems) = target: T8, FS315 (R&D Systems) (human, UniProt P19883 30-344); experiment: Biacore SPR, 25 C; FS315 immobilized on CM5 chip, ligand as soluble analyte; FS315 (R&D Systems, no Fc) amine-coupled to CM5 chip; activin as soluble analyte; 25 C
T8 construct: Bought protein (R&D Systems); also called native follistatin; native FS315
From the text: as §1

[13] = target: T9, follistatin-Fc human chimera FS315-hFc (Sino Biological Inc. Catalog Number 10685-H02H) (human, UniProt P19883 30-344); experiment: Biacore SPR, 25 C; Fc fusion captured with human antibody capture kit, ligand as soluble analyte
T9 construct: Bought fusion protein; also called Sino Biological FS315-hFc; not shown: human Fc of the bought product
From the text: as §1

T9 sequence (P19883 other isoform, or with tags, fused parts or gaps H02H H02H): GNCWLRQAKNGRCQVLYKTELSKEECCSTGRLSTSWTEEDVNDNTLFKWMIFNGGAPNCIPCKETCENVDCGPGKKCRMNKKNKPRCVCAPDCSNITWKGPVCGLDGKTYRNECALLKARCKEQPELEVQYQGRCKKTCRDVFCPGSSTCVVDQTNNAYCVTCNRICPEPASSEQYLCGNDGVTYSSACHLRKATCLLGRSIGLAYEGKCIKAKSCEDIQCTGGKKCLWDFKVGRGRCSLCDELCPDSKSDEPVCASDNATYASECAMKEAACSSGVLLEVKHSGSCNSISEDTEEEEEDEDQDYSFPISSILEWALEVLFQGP

B1
binding result (BMP-2): no binding | IC50 (read off the curve); BRE-luciferase reporter in HEK293 cells, BMP-9-induced Smad1/5/8 signalling (BMP-9 [1]): ~20000 pM | Kd (BMP-7): 1100 pM | Kd (BMP-9 [2]): 54 pM | Kd (BMP-6): 57 pM | Kd (BMP-4 [3]): 130000 pM | Kd (activin [4]): 70 pM

B2
IC50, CAGA-luciferase reporter assay for Smad2/3 signaling (1.2 nM activin) (activin [5]): 360 pM | IC50, CAGA-luciferase reporter assay for Smad2/3 signaling (1.2 nM myostatin) (myostatin [6]): 460 pM | binding result (BMP-2): no binding | binding result (BMP-9 [7]): no binding | binding result (BMP-10): no binding | Kd (GDF-11): 0.018 pM | Kd (BMP-4 [8]): 81000 pM | Kd (activin [9]): 0.038 pM | Kd (myostatin [10]): 0.073 pM | fold increase of binding affinity against follistatin (FS315) (myostatin [11]): ≥ 10 fold | IC50 (read off the curve); CAGA-luciferase reporter in HEK293 cells, myostatin (1.2 nM)-induced Smad2/3 signalling (myostatin [12]): ~300 pM

B3
Kd (FS315 (R&D Systems)): 730 pM | Kd [13]: 190 pM
